Results taken from patent US20130315910A1 (Xencor, published 2013).

T1: human FcγRIIb receptor protein (R&D Systems) (human, UniProt P31994 46-217)
T1 construct: Bought protein injected over captured antibody in Biacore; also called CD32b
T1 sequence (looked up): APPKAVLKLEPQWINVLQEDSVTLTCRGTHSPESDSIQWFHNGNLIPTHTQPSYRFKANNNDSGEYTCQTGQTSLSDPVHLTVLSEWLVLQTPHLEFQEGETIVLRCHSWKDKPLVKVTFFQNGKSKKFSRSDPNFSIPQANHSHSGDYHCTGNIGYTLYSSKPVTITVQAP

T2: human FcγRIIa (131R), His- and GST-tagged (human, UniProt P12318 34-217)
T2 construct: Expressed in HEK293T cells, purified by nickel chromatography; also called R131 FcγRIIa; not shown: 6xHis and GST tags of the pTT5 vector
T2 sequence (looked up): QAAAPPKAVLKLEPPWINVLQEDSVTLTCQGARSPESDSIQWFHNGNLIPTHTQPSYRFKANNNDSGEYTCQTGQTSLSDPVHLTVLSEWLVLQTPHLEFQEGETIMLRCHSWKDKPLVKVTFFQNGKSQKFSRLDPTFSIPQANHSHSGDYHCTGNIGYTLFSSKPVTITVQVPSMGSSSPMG

T3: human FcγRIIa (131H), His- and GST-tagged (human, UniProt P12318 34-217)
T3 construct: also called H131 FcγRIIa; HIIa; not shown: 6xHis and GST tags of the pTT5 vector
T3 sequence (looked up): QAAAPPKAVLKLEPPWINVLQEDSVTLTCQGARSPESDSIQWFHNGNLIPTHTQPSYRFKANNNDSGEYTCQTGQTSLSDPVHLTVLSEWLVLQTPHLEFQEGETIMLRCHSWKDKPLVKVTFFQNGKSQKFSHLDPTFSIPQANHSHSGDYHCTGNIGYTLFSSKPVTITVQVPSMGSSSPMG


How the values were obtained:
Experiment in all cases: SPR
[1] = target: T1, human FcγRIIb receptor protein (R&D …)
[2] = target: T4, human FcγRI receptor protein (R&D Systems) (human, UniProt P12314 16-288)
T4 construct: also called soluble FcγRI; solFcγRI

[3] = target: T2, human FcγRIIa (131R), His- and …
[4] = target: T3, human FcγRIIa (131H), His- and …
[5] = target: T5, human FcγRIIIa (158V), His- and GST-tagged (human, UniProt P08637 17-208)
T5 construct: also called V158 FcγRIIIa; VIIIa; not shown: 6xHis and GST tags of the pTT5 vector
T5 sequence (P08637 17-208 F176V): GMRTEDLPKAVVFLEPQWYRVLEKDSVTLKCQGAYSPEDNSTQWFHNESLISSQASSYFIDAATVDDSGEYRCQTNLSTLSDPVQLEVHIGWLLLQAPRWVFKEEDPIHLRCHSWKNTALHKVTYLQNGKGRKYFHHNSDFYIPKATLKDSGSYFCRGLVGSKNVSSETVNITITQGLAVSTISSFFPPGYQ

T4 sequence (P12314 16-288 limits assumed): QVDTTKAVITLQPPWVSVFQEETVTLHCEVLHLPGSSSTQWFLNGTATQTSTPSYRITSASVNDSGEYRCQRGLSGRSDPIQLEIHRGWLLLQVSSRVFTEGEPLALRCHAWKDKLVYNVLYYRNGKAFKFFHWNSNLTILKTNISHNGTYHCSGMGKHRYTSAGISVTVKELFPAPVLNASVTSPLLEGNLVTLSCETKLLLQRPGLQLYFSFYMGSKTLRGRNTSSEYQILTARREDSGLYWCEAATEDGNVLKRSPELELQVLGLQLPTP

Fold vs WT IgG1 [1] [fold]	Kd [1] [nM]	Fold vs WT IgG1 [2] [fold]	Kd [2] [nM]	Fold vs WT IgG1 [3] [fold]	Kd [3] [nM]	Fold vs WT IgG1 [4] [fold]	Kd [4] [nM]	binding result [5]	Fold vs WT IgG1 [5] [fold]	Kd [5] [nM]	binding result [2]	binding result [4]	Binder
80.4	18.2	0.00057	573	133	6.45	0.275	2350	no binding					L235D/S267E/L328F (antibody, human IgG1, kappa, HuAM4G7 anti-CD19 IgG1 (m1) with these Fc substitutions, EU index; copies: 2 + 2) heavy: EVQLVESGGGLVKPGGSLKLSCAASGYTFTSYVMHWVRQAPGKGLEWIGYINPYNDGTKYNEKFQGRVTISSDKSISTAYMELSSLRSEDTAMYYCARGTYYYGTRVFDYWGQGTLVTVSSASTKGPSVFPLAPSSKSTSGGTAALGCLVKDYFPEPVTVSWNSGALTSGVHTFPAVLQSSGLYSLSSVVTVPSSSLGTQTYICNVNHKPSNTKVDKKVEPKSCDKTHTCPPCPAPELDGGPSVFLFPPKPKDTLMISRTPEVTCVVVDVEHEDPEVKFNWYVDGVEVHNAKTKPREEQYNSTYRVVSVLTVLHQDWLNGKEYKCKVSNKAFPAPIEKTISKAKGQPREPQVYTLPPSREEMTKNQVSLTCLVKGFYPSDIAVEWESNGQPENNYKTTPPVLDSDGSFFLYSKLTVDKSRWQQGNVFSCSVMHEALHNHYTQKSLSLSPGK light: DIVMTQSPATLSLSPGERATLSCRSSKSLQNVNGNTYLYWFQQKPGQSPQLLIYRMSNLNSGVPDRFSGSGSGTEFTLTISSLEPEDFAVYYCMQHLEYPITFGAGTKLEIKRTVAAPSVFIFPPSDEQLKSGTASVVCLLNNFYPREAKVQWKVDNALQSGNSQESVTEQDSKDSTYSLSSTLTLSKADYEKHKVYACEVTHQGLSSPVTKSFNRGEC
0.908	1620	0.0197	16.7	0.666	1290	0.181	3580		0.903	212			L235I (antibody, human IgG1, kappa, HuAM4G7 anti-CD19 IgG1 (m1) with this Fc substitution, EU index; copies: 2 + 2) heavy: not shown light: DIVMTQSPATLSLSPGERATLSCRSSKSLQNVNGNTYLYWFQQKPGQSPQLLIYRMSNLNSGVPDRFSGSGSGTEFTLTISSLEPEDFAVYYCMQHLEYPITFGAGTKLEIKRTVAAPSVFIFPPSDEQLKSGTASVVCLLNNFYPREAKVQWKVDNALQSGNSQESVTEQDSKDSTYSLSSTLTLSKADYEKHKVYACEVTHQGLSSPVTKSFNRGEC
25	58.7			9.67	88.8			no binding			no binding	no binding	L235Y/G236D/S267E (antibody, human IgG1, kappa, HuAM4G7 anti-CD19 IgG1 (m1) with these Fc substitutions, EU index; copies: 2 + 2) heavy: EVQLVESGGGLVKPGGSLKLSCAASGYTFTSYVMHWVRQAPGKGLEWIGYINPYNDGTKYNEKFQGRVTISSDKSISTAYMELSSLRSEDTAMYYCARGTYYYGTRVFDYWGQGTLVTVSSASTKGPSVFPLAPSSKSTSGGTAALGCLVKDYFPEPVTVSWNSGALTSGVHTFPAVLQSSGLYSLSSVVTVPSSSLGTQTYICNVNHKPSNTKVDKKVEPKSCDKTHTCPPCPAPELYDGPSVFLFPPKPKDTLMISRTPEVTCVVVDVEHEDPEVKFNWYVDGVEVHNAKTKPREEQYNSTYRVVSVLTVLHQDWLNGKEYKCKVSNKALPAPIEKTISKAKGQPREPQVYTLPPSREEMTKNQVSLTCLVKGFYPSDIAVEWESNGQPENNYKTTPPVLDSDGSFFLYSKLTVDKSRWQQGNVFSCSVMHEALHNHYTQKSLSLSPGK light: DIVMTQSPATLSLSPGERATLSCRSSKSLQNVNGNTYLYWFQQKPGQSPQLLIYRMSNLNSGVPDRFSGSGSGTEFTLTISSLEPEDFAVYYCMQHLEYPITFGAGTKLEIKRTVAAPSVFIFPPSDEQLKSGTASVVCLLNNFYPREAKVQWKVDNALQSGNSQESVTEQDSKDSTYSLSSTLTLSKADYEKHKVYACEVTHQGLSSPVTKSFNRGEC
